Assay results: article PMC3468530, “Structural and Enzymatic characterization of the lactonase SisLac from Sulfolobus islandicus” (PLoS ONE, 2012)

B1: SsoPox, Phosphotriesterase-Like Lactonase from Sulfolobus solfataricus (enzyme)
chain: MRIPLVGKDSIESKDIGFTLIHEHLRVFSEAVRQQWPHLYNEDEEFRNAVNEVKRAMQFGVKTIVDPTVMGLGRDIRFMEKVVKATGINLVAGTGIYIYIDLPFYFLNRSIDEIADLFIHDIKEGIQGTLNKAGFVKIAADEPGITKDVEKVIRAAAIANKETKVPIITHSNAHNNTGLEQQRILTEEGVDPGKILIGHLGDTDNIDYIKKIADKGSFIGLDRYGLDLFLPVDKRNETTLRLIKDGYSDKIMISHDYCCTIDWGTAKPEYKPKLAPRWSITLIFEDTIPFLKRNGVNEEVIATIFKENPKKFFS
notes: SsoPox, Phosphotriesterase-Like Lactonase of Sulfolobus solfataricus (strain MT4, GenBank AAW47234.1); made from the plasmid pET22b-SsoPox; Plasmid pET22b-SsoPox (GeneArt); also called wt SsoPox; source: E. coli BL21(DE3)-pGro7/GroEL, purified (70°C heat step, ammonium sulfate precipitation, size exclusion chromatography)

Key:
[1] = molecular target: SisLac, Phosphotriesterase-Like Lactonase from Sulfolobus islandicus strain M.16.4 (Sulfolobus islandicus strain M.16.4); test: dynamic light scattering; room temperature, 30 µL of purified protein at 2.5 mg/mL in activity buffer (HEPES 50 mM pH 8, NaCl 150 mM, CoCl2 0.2 mM), 633 nm
[2] = molecular target: SisLac, Phosphotriesterase-Like Lactonase from Sulfolobus islandicus strain M.16.4 (Sulfolobus islandicus strain M.16.4); test: SEC-MALS; KW803 column (Shodex), room temperature (25°C), 0.5 ml/min, activity buffer (HEPES 50 mM, NaCl 150 mM, CoCl2 0.2 mM) with pH adjusted to 7.3; static and quasi-elastic light scattering, refractometry
[3] = molecular target: the molecule itself; test: as above

Molecule	stoichiometry N [1]	stoichiometry N [2]	stoichiometry N [3]
SisLac, Phosphotriesterase-Like Lactonase from Sulfolobus islandicus strain M.16.4 (enzyme)	2	2	–
B1	–	–	2
